{"source": "patent US20190224333A1", "about": "(published 2019)", "binders": {"B1": {"name": "H6 (VHH)", "VHH": "QVQLLESGGGLVQPGGSLRLSCAASGDRFTHNDMGWVRQAPGKGLEWVSTIPTTDGSTYYADSVKGRFTISRDNSKSTLYLQMNSLRAEDTAVYYCATGYMWKAPAYVKYWGQGTLVTVSS", "notes": "Human-derived single domain variable fragment (sdFv, VH only) from a phagemid library; Made as soluble sdFv in E. coli HB2151 and purified on protein A; also called clone H6; fibrin-specific sdFv"}}, "biological_target": "T1, fibrin (human, UniProt P02671 36-629; P02675 45-491; P02679 27-437, limits assumed)", "T1 construct": "Thin polymerised fibrin layer made by layer-by-layer deposition of fibrinogen-thrombin-fibrinogen on ELISA plates, SPR chips and interferometry sensors; Human is stated for the purified fibrinogen used in biopanning; also called fibrin layer; fibrin clot", "T1 sequence (looked up) 1": "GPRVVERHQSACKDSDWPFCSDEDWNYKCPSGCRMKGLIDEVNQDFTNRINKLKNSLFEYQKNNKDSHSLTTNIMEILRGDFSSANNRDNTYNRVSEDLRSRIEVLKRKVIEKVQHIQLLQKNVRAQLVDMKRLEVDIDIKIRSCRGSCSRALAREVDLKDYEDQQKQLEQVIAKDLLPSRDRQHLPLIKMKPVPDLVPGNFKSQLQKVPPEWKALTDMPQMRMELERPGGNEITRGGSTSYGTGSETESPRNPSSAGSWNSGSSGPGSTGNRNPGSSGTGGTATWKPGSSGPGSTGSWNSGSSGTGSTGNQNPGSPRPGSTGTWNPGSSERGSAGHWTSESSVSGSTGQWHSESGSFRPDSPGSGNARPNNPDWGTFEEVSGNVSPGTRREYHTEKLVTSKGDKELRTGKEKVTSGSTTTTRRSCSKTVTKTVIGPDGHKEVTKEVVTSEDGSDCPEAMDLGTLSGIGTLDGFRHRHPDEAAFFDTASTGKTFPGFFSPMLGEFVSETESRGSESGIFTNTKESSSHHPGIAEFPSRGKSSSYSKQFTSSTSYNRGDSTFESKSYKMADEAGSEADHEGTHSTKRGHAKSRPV", "T1 sequence (looked up) 2": "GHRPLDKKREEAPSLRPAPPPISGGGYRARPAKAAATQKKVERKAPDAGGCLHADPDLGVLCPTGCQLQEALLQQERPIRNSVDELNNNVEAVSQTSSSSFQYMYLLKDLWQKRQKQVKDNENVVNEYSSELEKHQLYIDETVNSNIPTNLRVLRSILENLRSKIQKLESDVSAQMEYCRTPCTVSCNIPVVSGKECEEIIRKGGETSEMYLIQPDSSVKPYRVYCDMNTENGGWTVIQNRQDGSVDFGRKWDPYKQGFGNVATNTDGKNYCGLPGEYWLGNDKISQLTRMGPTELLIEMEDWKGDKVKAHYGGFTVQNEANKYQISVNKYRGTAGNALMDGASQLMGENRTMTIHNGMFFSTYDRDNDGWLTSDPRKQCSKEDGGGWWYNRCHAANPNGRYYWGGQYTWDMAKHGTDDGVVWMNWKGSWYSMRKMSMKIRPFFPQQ", "T1 sequence (looked up) 3": "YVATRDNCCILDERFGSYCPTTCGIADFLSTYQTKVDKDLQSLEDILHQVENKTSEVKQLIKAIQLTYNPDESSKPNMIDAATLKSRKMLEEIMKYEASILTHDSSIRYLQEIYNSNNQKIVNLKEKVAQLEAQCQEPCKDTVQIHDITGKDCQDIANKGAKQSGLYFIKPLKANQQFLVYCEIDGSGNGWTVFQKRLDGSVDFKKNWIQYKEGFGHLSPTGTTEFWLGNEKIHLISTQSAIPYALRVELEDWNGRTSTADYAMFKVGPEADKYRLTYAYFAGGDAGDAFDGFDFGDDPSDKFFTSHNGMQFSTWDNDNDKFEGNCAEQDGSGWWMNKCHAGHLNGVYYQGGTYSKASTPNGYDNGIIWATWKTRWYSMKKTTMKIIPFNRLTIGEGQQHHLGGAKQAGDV", "assay": "SPR, sdFv flowed over immobilised fibrin layer, 1:1 Langmuir fit", "experimental": "Based on previous SPR protocols developed in the lab⁴, a thin fibrin layer was immobilized on the surface of a gold SPR chip via layer-by-layer deposition of fibrinogen-thrombin-fibrinogen³. SdFvs were flowed across the fibrin surface and the binding interactions were evaluated and recorded. Additionally, antibody fragment binding interactions with a surface of immobilized fibrinogen was used to investigate the specificity to fibrin. All SPR data was examined and analyzed with Scrubber 2 and Clamp XP (Center for Biomolecular Interactions Analysis, University of Utah). Data simulation curves were generated based on a Langmuir 1:1 binding model assuming only a single ligand-analyte interaction.\nThe four most promising clones, based on their selectivity for fibrin over fibrinogen (clones A2, A6, B3 and H6) and a random clone (S11) were then evaluated through SPR analysis (FIGS. 2B-2K). […] Clones H6 and S11 (negative control) were subsequently utilized for creation of PLPs. Interferometry analysis verified that sdFv-microgels maintained their fibrin-binding capabilities (FIG. 3).", "data": [{"binder": "B1", "values": [{"measurement": "Kd", "result": 199, "unit": "nM"}]}]}
